Data: paper PMC10579229 (Nature Communications, 2023)

B1: nanobody M4 (VHH)
VHH: QVKLQQSGGGLVQPGGSLRLSCAASESTISINTLGWYRQAPGNQRELVATITTGGTTNYADSVKGRFTISRDNAKNTVYLQMNNLEPGDTAVYYCNLKRRDLQSRFGGYWGQGTQVTVSS
B2: GII.4 Sydney 2012 P-domain (protruding domain of the capsid protein VP1) (domain or fragment)
chain: ESRTKPFSVPVLTVEEMTNSRFPIPLEKLFTGPSSAFVVQPQNGRCTTDGVLLGTTQLSPVNICTFRGDVTHITGSRNYTMNLASQNWNDYDPTEEIPAPLGTPDFVGKIQGVLTQTTRTDGSTRGHKATVYTGSADFAPKLGRVQFETDTDRDFEANQNTKFTPVGVIQDGGTTHRNEPQQWVLPSYSGRNTHNVHLAPAVAPTFPGEQLLFFRSTMPGCSGYPNMDLDCLLPQEWVQYFYQEAAPAQSDVALLRFVNPDTGRVLFECKLHKSGYVTVAHTGQHDLVIPPNGYFRFDSWVNQFYTLAPMG
modifications: biotin (EZ-Link NHC-LC-LC-biotin), in the BLI only
notes: also called GII.4 P-domain; GII.4 Sydney P-domain; source: E. coli BL21(DE3), purified (His-Trap, TEV cleavage, His-Trap, MBPTrap, SEC); not shown: His6, N-terminal, cleaved; MBP, N-terminal, cleaved

Legend:
[1] = target: capsid protein VP1 of GII.4 Den Haag HuNoV (human norovirus GII.4 (Den Haag))
[2] = target: capsid protein VP1 of GII.4 New Orleans HuNoV (human norovirus GII.4 (New Orleans))
[3] = target: the molecule itself; experiment: crystal structure; P-domain and M4 mixed 1:1.5, complex peak from S200 gel filtration; crystals at 20 °C in 2% Tacsimate pH 4.0, 0.1 M sodium acetate pH 4.6, 16% PEG 3350; 2.87 Å

Row | Binder | IC50 of neutralisation of GII.4 Den Haag HuNoV (stool filtrate, 100 TCID50) in J4 FUT2 human intestinal enteroid monolayers; viral genome equivalents by RT-qPCR at 24 hpi [1] [µg/mL] | IC50 of neutralisation of GII.4 New Orleans HuNoV (stool filtrate, 100 TCID50) in J4 FUT2 human intestinal enteroid monolayers; viral genome equivalents by RT-qPCR at 24 hpi [2] [µg/mL] | stoichiometry N [3]
1 | B1 | 0.379 | 0.056 | 
2 | B2 |  |  | 2
